Assay results reported in PMC5296656.

Molecular target: RpL4 (as it stands in the Acl4·RpL4 complex) (not stated (S. cerevisiae or C. thermophilum cDNA cloned))
Test: SEC; Superdex 200 10/300 GL, 20 mM TRIS pH 8.0, 100 mM NaCl, 5 mM DTT; pre-incubation 1 h at 4 °C; fractions on SDS-PAGE, Coomassie

“Acl4 (untagged, purified) (natural protein)” showed a stoichiometry N (Acl4 per RpL4) of 2.
